Key:
A549 cells = experiment: Tumor xenograft model; assay type: in vivo, C.B-17 SCID mice; conditions: for Days to Volume Doubling (ave, 95% CI): intraperitoneal every 3 days, 7 doses
Experimental: Fifty-six female C.B-17 SCID mice were inoculated with A549 cells (5×10^6 cells/mouse) subcutaneously in the flank. Once tumor volume reached ˜100 mm^3, animals were randomized amongst 7 groups of 8 mice each. Mice were then treated intraperitonealy every 3 days for a total of 7 doses with isotype controls or novel mAbs 79E3E3, 16E10 and 9G04 (2 and 20 mg/kg) or with docetaxel at 10 mg/kg every 4 days for a total of 6 doses. Tumor volumes and body weights were recorded twice a week with a gap of 2-3 days in between two measurements until any of the following conditions defined were observed: loss of 20% or more body weight; tumors that inhibit normal physiological function such as eating, drinking, and mobility; ulcerated tumors; tumor size greater than 2000 mm^3 and clinical observations of prostration, paralysis, seizures and hemorrhages.
In this example, studies were performed to determine if inhibition of α11β1 function with mAb results in xenograft growth inhibition. As shown in FIG. 16 and Table 4, blocking α11β1 on mouse CAFs impeded xenograft growth in SCID mice.

α11β1 Headpiece = experiment: SPR binding to α11β1 Headpiece; design: species or system human; conditions: SPR data
Experimental: (§1) The affinity of antibodies for human α11β1 was measured by surface plasmon resonance assay (SPR). Affinity was measured at pH 7.6 and 25° C. with a Biacore T200 instrument. Anti-HIS antibody was immobilized on the SPR sensor surface using EDC/NHS covalent attachment. HIS-tagged human α11β1 was captured on the sensor surface and a single-cycle kinetics assay was used. Increasing concentrations of test antibody were injected in series over the sensor-bound α11β1. Dissociation was monitored for 1000 seconds. A sensor surface with only anti-HIS antibody and a series of blank injections were used to double-reference subtract the data. A 1:1 Langmuir model was fit to the data to estimate the kinetic association and dissociation constants. The affinity (equilibrium dissociation constant) of the interaction was calculated by dividing the kinetic dissociation constant by the kinetic association constant. Between injection cycles α11β1 and bound antibody were removed with an injection of 10 mM glycine at pH 1.5.
(§2) The binding affinity of antibodies for the α11β1 Headpiece and α11β1 I Domain as measured by SPR is shown in FIG. 10A and FIG. 10B, respectively.

α11β1 I Domain = target: T1, α11β1 I Domain (Homo sapiens, UniProt Q9UKX5); experiment: SPR binding to α11β1 I Domain; conditions: SPR data
T1 sequence (Q9UKX5 164-345 limits assumed): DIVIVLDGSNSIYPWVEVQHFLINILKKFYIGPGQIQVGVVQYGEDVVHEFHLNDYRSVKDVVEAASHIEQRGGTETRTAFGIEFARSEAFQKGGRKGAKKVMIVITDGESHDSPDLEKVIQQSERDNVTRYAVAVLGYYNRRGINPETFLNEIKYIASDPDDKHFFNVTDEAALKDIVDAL
Experimental: as §1, §2

[1] = system: CHO cell lines expressing α11; experiment: Collagen gel contraction assay; assay type: cell-based, human
Experimental: 24-well plates were blocked with 2% BSA in PBS overnight at 37° C. The following day, the plates were washed 3 times with PBS before being used in the assay. Human CHO cell lines expressing α11 were harvested and resuspended at 1.25×10^6 in ExpiCHO Expression Medium (Gibco™ Cat #A2910002). The collagen gel solution was prepared by diluting 3 mg/mL stock collagen type I (Gibco™ Collagen I Rat Protein, Tail Cat #A1048301) to 1 mg/mL in the media containing the CHO cells. Sodium hydroxide was added to the solution to neutralize the pH and 400 μL of the collagen solution was added to each well of the 24-well plates. For the wells where the antibodies were included in the collagen gel solution, CHO cells were prepared at 2.5×10^6 and the antibodies were prepared at 2× final concentration in ExpiCHO media. The cells and antibodies were then combined 1:1 before the addition of the stock collagen type 1. The gels were allowed to polymerize for 60 minutes at 37° C. Antibodies were added to the ExpiCHO media, which was then layered on top of the polymerized gel (400 μL/well). The gels were incubated for 6 days at 37° C. before gel contraction was quantified. Images of each well were analyzed using Image J and gel contraction was determined as a percentage of the initial gel area.
Selected exemplary antibodies were tested for the ability to inhibit cell-mediated 3D gel contraction because this ability is directly linked to the functionality of the exemplary antibodies.

B1: 16E10: rabbit anti-α11β1 mAb; heavy chain SEQ ID NO: 161, light chain SEQ ID NO: 162 (antibody)
heavy: METGLRWLLLVAVLKGVQCQSLEESGGDLVKPGASLTLTCRVSGFSFSSSYYMCWVRQAPGKGLEWIACIGTTRGSTYYATWAKGRFTISKISSTTVTLQMTSLTDADTATYFCARDATGYRINTIGLYFNLWGPGTLVTVSSGQPKAPSVFPLAPCCGDTPSSTVTLGCLVKGYLPEPVTVTWNSGTLTNGVRTFPSVRQSSGLYSLSSVVSVTSSSQPVTCNVAHPATNTKVDKTVAPSTCSKPMCPPPELPGGPSVFIFPPKPKDTLMISRTPEVTCVVVDVSQDDPEVQFTWYINNEQVRTARPPLREQQFNSTIRVVSTLPIAHQDWLRGKEFKCKVHNKALPAPIEKTISKARGQPLEPKVYTMGPPREELSSRSVSLTCMINGFYPSDISVEWEKNGKAEDNYKTTPTVLDSDGSYFLYSKLSVPTSEWQRGDVFTCSVMHEALHNHYTQKSISRSPGK
light: MDTRAPTQLLGLLLLWLPGARCAFELTQTPSSVEAAVGGTPTIKCQASQTIYSYLSWYQQKPGQPPKLLIYEASKLASGVPSRFSGSGSGTDYTLTISDLECADAATYYCQSYHGTASTEYNTFGGGTEVVVRGDPVAPTVLIFPPAADQVATGTVTIVCVANKYFPDVTVTWEVDGTTQTTGIENSKTPQNSADCTYNLSSTLTLTSTQYNSHKEYTCKVTQGTTSVVQSFNRGDC
- Days to Volume Doubling (ave, 95% CI) (A549 cells; 2mpk): 7.9 (7.5, 8.3) Days
- Days to Volume Doubling (ave, 95% CI) (A549 cells; 20mpk): 7.9 (7.5, 8.3) Days
- inhibition of tumor growth compared to isotype control (A549 cells; A549 xenograft, SCID mice): no significant inhibition of tumor growth
- binding to the headpiece domain of α11β1 (α11β1 Headpiece): do not bind
- binding to the I domain of α11β1 (α11β1 I Domain): do not bind
- Inhibition of CHO-K1 gel contraction ([1]; Yes/No): Yes
- inhibition of CHO-hu α11-mediated collagen gel contraction ([1]; vs untreated): inhibited CHO-hu α11-mediated collagen gel contraction

— patent US12460006B2, “Antibodies against integrin alpha 11 beta 1” (Momenta Pharmaceuticals, Inc., priority 2019, dated 2025)
